Test results taken from paper doi:10.1101/2023.03.24.534125 (bioRxiv, 2023).

Target: T1, CRISPR array binding protein 1, Cbp1 (S. solfataricus P2, SSO0454) (S. solfataricus P2, UniProt Q97ZW9 1-150)
T1 sequence (looked up): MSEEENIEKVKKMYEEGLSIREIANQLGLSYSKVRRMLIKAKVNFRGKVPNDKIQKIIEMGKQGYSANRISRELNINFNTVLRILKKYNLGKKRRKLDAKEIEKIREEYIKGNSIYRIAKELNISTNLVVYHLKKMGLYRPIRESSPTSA
Experiment: native gel or EMSA

- stoichiometry N: 2
B1: Cren7 (S. solfataricus, SSO6901) (natural protein, UniProt Q97ZE3 1-60, looked up)
chain: MSSGKKPVKVKTPAGKEAELVPEKVWALAPKGRKGVKIGLFKDPETGKYFRHKLPDDYPI
